From patent publication US9889181B2, “Bacteriophage lysin and antibiotic combinations against gram positive bacteria” (priority 2012, dated 2018)

Tests used:
[1] = test system: Klebsiella spp.; experiment: MIC, human gut bacteria; type: cell-based; details: N 8
[2] = test system: Proteus mirabilis; experiment: MIC, human gut bacteria; type: cell-based; details: N 2
[3] = test system: Lactobacillus spp.; experiment: MIC, human gut bacteria; type: cell-based; details: N 6
[4] = test system: S. aureus cells (strain MW2); experiment: Electron microscopy of bacteriolysis; type: cell-based, Staphylococcus aureus
Excerpt: FIG. 4A-4F provides composite time kill curves of PlySS2 and antibiotics on S. aureus cells in vitro. (A, B) Composite time-kill curves of PlySS2 compared to oxacillin (OXA), vancomycin (VAN), and daptomycin (DAP) against sets of 20 MSSA and 42 MRSA strains, respectively. In each individual analysis, drug concentrations correspond to strain-specific 1×MIC values. Mean values (±standard error of the mean) are shown for each time-point. (C, D) Titration analysis of PlySS2 against sets of 15 contemporary clinical MSSA and MRSA isolates, respectively. In each individual analysis, PlySS2 concentrations correspond to strain-specific MIC values. […] (E,F) Transmission electron micrographs (3300× magnification) of S. aureus cells (strain MW2) before and after 3 second treatment with 8 µg/mL PlySS2. Scale bars correspond to […]. Lysis results in the loss of darkly stained cytoplasmic components.
Rapid-kill kinetics are desirable in the clinical setting to treat patients with fulminant bacterial infections.

[5] = test system: MRSA strains; experiment: Time kill assay, PlySs2 and antibiotic alone or in combination; type: cell-based, Staphylococcus aureus; details: ½ MIC of PlySs2 or ¼ MIC of vancomycin alone
[6] = test system: MRSA S. aureus strains; experiment: Dual agent MIC assay (PlySs2 and daptomycin); type: cell-based, Staphylococcus aureus
[7] = test system: MRSA strain MW2 and MSSA strain ATCC 29213; type: cell-based, Staphylococcus aureus; details: consistently across 1.25 to 15% surfactant
[8] = test system: MRSA strain 269 (MW2); experiment: Combination MIC in 15% surfactant (Survanta); type: cell-based, Staphylococcus aureus
[9] = test system: MRSA; experiment: Murine bacteremia, PlySs2 dose-response and blood CFUs; type: in vivo, mice; details: for decrease in CFUs in blood: 5.25 mg/kg at 2-hours post-infection
[10] = test system: MSSA; experiment: MIC, broth microdilution (CLSI M07-A9)
[11] = test system: VISA; experiment: MIC, broth microdilution (CLSI M07-A9); set-up: MIC 50% / MIC 90% / MIC Range: unit not given beside the values
[12] = test system: VRSA; experiment: MIC, broth microdilution (CLSI M07-A9)
[13] = test system: LRSA; experiment: MIC, broth microdilution (CLSI M07-A9); set-up: MIC 50% / MIC 90% / MIC Range: unit not given beside the values
[14] = test system: DRSA; experiment: MIC, broth microdilution (CLSI M07-A9)
[15] = test system: Streptococcus pyogenes, Group A; experiment: MIC, broth microdilution (CLSI M07-A9); details: Group A (54)
[16] = test system: Streptococcus agalactiae, Group B; experiment: MIC, broth microdilution (CLSI M07-A9); details: Group B (51)
[17] = test system: Staphylococcus epidermidis; experiment: MIC, broth microdilution (CLSI M07-A9); details: Staphylococcus epidermidis (11)
[18] = test system: Streptococcus pneumoniae; experiment: MIC, broth microdilution (CLSI M07-A9); details: Streptococcus pneumoniae (26)
[19] = test system: Listeria monocytogenes; experiment: MIC, broth microdilution (CLSI M07-A9); details: Listeria monocytogenes (12)
[20] = test system: Enterococcus faecalis; experiment: MIC, broth microdilution (CLSI M07-A9); details: Enterococcus faecalis (17)
[21] = test system: Enterococcus faecium; experiment: MIC, broth microdilution (CLSI M07-A9); details: Enterococcus faecium (5)
[22] = test system: Pseudomonas aeruginosa; experiment: MIC, broth microdilution (CLSI M07-A9)
[23] = Staphylcoccus aureus Methicillin susceptible (103)
[24] = Vancomycin-intermediate (31) Staphylococcus aureus
[25] = Linezolid-resistant (5) Staphylococcus aureus

B1: PlySs2: bacteriophage lysin derived from Streptococcus suis, amino acid sequence of FIG. 29 (SEQ ID NO: 1) (protein, listed as Streptococcus suis)
chain: MTTVNEALNNVRAQVGSGVSVGNGECYALASWYERMISPDATVGLGAGVGWVSGAIGDTISAKNIGSSYNWQANGWTVSTSGPFKAGQIVTLGATPGNPYGHVVIVEAVDGDRLTILEQNYGGKRYPVRNYYSAASYRQQVVHYITPPGTVAQSAPNLAGSRSYRETGTMTVTVDALNVRRAPNTSGEIVAVYKRGESFDYDTVIIDVNGYVWVSYIGGSGKRNYVATGATKDGKRFGNAWGTFK
CF-301 MIC [1]: >512 µg/mL | CF-301 MIC [2]: >512 µg/mL | CF-301 MIC [3]: >512 µg/mL | treatment time giving extensive bacteriolysis of S. aureus cocci [4]: 15 s | effect alone at sub-MIC doses up to 6 hours [5]: ineffective or poorly effective | Fold reduction ([6]; MRSA strain 223): 4 fold | Fold reduction ([6]; MRSA strain 241): 2 fold | Fold reduction ([6]; MRSA strain 263): 4 fold | Fold reduction ([6]; MRSA strain 269 (MW2)): 4 fold | Fold reduction ([6]; MRSA strain 270): 4 fold | Fold reduction ([6]; MRSA strain 553): 2 fold | Fold reduction ([6]; MRSA strain 650): 2 fold | Fold reduction ([6]; MRSA strain 827): 2 fold | Fold reduction ([6]; MRSA strain 828): 4 fold | Fold reduction ([6]; MRSA strain 829): 2 fold | Fold reduction ([6]; MRSA strain 830): 2 fold | Fold reduction ([6]; MRSA strain 833): 4 fold | fold reduction in the effective MIC in PlySs2/daptomycin combination ([6]; across 12 MRSA strains): 2-4 fold | fold inhibition of MIC in the presence of Survanta [7]: 8 fold | effective combination concentration as fraction of the MIC [8]: ⅛ | effective concentration in PlySs2 plus daptomycin combination MIC ([8]; 24 hours): 2 µg/mL | protection ([9]; 5 mg/kg dose, data not shown): significant protection | decrease in CFUs in blood ([9]; in 15 minutes): 0.5 log10 | decrease in CFUs in blood ([9]; within the 60 minutes of treatment): 2 log10 | lowest dose with survival enhancement over mock-injected control ([9]; data not shown): 0.25 mg/kg | MIC90 ([10]; MSSA (n-28)): 0.15 µM | MIC 50% [10, 23]: 4 µg/mL | MIC 90% [10, 23]: 8 µg/mL | MIC Range [10, 23]: 1 to 16 µg/mL | MIC90 ([11]; VISA (n = 10)): 1.2 µM | MIC 50% [11, 24]: 8 | MIC 90% [11, 24]: 32 | MIC Range [11, 24]: 1-64 | MIC90 ([12]; VRSA (n = 14)): 0.08 µM | MIC Range ([12]; Vancomycin-resistant (14) Staphylococcus aureus): 1000 to 4000 µg/mL | MIC90 ([13]; LRSA (n = 5)): 0.08 µM | MIC 50% [13, 25]: 2 | MIC 90% [13, 25]: 2 | MIC Range [13, 25]: 2-4 | MIC90 ([14]; DRSA (n = 8)): 0.15 µM | MIC Range ([14]; Daptomycin-resistant (8) Staphylococcus aureus): 2000 to 4000 µg/mL | MIC 50% [15]: 2 µg/mL | MIC 90% [15]: 8 µg/mL | MIC Range [15]: 0.5 to 8 µg/mL | MIC 50% [16]: 8 µg/mL | MIC 90% [16]: 16 µg/mL | MIC Range [16]: 1 to 64 µg/mL | MIC 50% [17]: 128 µg/mL | MIC 90% [17]: 512 µg/mL | MIC Range [17]: 4 to 512 µg/mL | MIC 50% [18]: 16 µg/mL | MIC 90% [18]: 64 µg/mL | MIC Range [18]: 1 to 64 µg/mL | MIC 50% [19]: 128 µg/mL | MIC 90% [19]: 512 µg/mL | MIC Range [19]: 1 to 512 µg/mL | MIC 50% [20]: >512 µg/mL | MIC 90% [20]: >512 µg/mL | MIC 50% [21]: >512 µg/mL | MIC 90% [21]: >512 µg/mL | MIC 50% ([22]; Pseudomonas aeruginosa (5)): >512 µg/mL | MIC 90% ([22]; Pseudomonas aeruginosa (5)): >512 µg/mL | MIC Range ([22]; Pseudomonas aeruginosa (5)): >512 µg/mL | CF-301 MIC ([22]; Pseudomonas aeruginosa, N 11, human gut bacteria): >512 µg/mL
